Laboratory results published in patent US11013783B2, “Anti-inflammatory peptides and methods for treating inflammatory diseases” (INSTITUT NATIONAL DE LA RECHERCHE AGRONOMIQUE (INRA), priority 2012, dated 2021).
Changes are numbered by the printed parent chain.

What was measured:
[1] = tested on: IL-8 production by HT29-MTX cells stimulated by TNFα; assay: IL-8 production of HT29-MTX cells incubated with peptides and stimulated by TNFα; type: cell-based; conditions: FIG. 4
Procedure: The inventors then incubated mucus secreting intestinal epithelial HT29-MTX cells with two peptide fragments obtained from the protein ZP05614546.1.
The inventors measured the IL-8 production (as a marker of inflammation) after stimulation of HT29-MTX cells incubated or not with said peptides and stimulated by TNFα.

NFκB signaling pathway = assay: NFκB luciferase reporter system in HEK 293T cells transfected with pCMV plasmids (Carma-1-dependent activation); type: cell-based, human; conditions: for NFκB signaling pathway inhibition (%): HEK 293T NFκB reporter, proteins cloned in 3× Flag (C-term) pCMV vector, table I
Source text: In order to further analyze the activity of the polypeptides of the invention, the inventors decided to transfect the protein-coding cDNA directly into mammalian epithelial cell model.
The sequence of the protein ZP05614546.1 (SEQ ID NO: 2) has been cloned in 3× Flag (C-term) pCMV vector.
In order to test the NFκB signaling pathway inhibiting activity from the orthologs of ZP05614546.1, the other protein sequences from FIG. 3 were also cloned in 3× Flag (C-term) pCMV vector and tested in the NFκB reporter system in human epithelial cells HEK 293T.
So as to better quantify the anti-inflammatory properties of ZP05614546.1 and orthologs, increasing quantity of pCMV plasmid (i.e. 50, 25 and 12.5 ng) containing SEQ ID NO: 2 and SEQ ID NO: 4 were used to transfected HEK293 cell line. Then, the evolution of NFκB signaling pathway expression was determined as previously. […] Accordingly, the SEQ ID NO: 4 from the strain M21/2 is 100% (2 fold) more efficient in inhibiting NFκB signaling pathway than the protein ZP05614546.1.
In order to further analyze the activity of the polypeptides of the invention, the inventors decided to clone into the previously described pCMV plasmid, the sequences corresponding to amino acids 23-135 of SEQ ID NO: 2 (Mut 1), 1-39/72-135 of SEQ ID NO: 2 (Mut 2), 1-99 of SEQ ID NO: 2 (Mut 3), 35-77 of SEQ ID NO: 2 (p35-′7′7) and . . . - . . . of SEQ ID NO: 2 from MAM from F. prausnitzii strain A2-165. The four constructs, Mut 1, Mut 3, p35-77 and p49-70 carry the peptide 1-5.

colonic inflammation = assay: Colonic inflammation model in mice treated daily orally with L. lactis expressing the protein; type: in vivo, C57B16 mice; conditions: M21/2 data not shown
Procedure: C57B16 mice (6-8 weeks old) are kept at room temperature, under 12 h light/dark cycles and having free access to food and water, except the day before the induction of colitis, where they are fasted for 12 h.
Colonic inflammation is induced by treatments with Dextran Sodium Sulfate […]. In details, DSS is dissolved in drinking water (3 or 5% wt/vol) and the animals are free to drink this solution for 7-days. Water consumption is measured in the DSS-treated groups and compared to groups of naïve mice drinking water: no difference is observed for the volume of liquid consumed, between water and DSS-drinking mice. Mice are treated daily orally, with 200 μL of 1 to 5.10^9 colony forming units (cfu) of strains to be tested or bacterial milieu alone—i.e. L. lactis expressing the protein ZP 05614546.1 (Accession number changed to WP_005932151), its ortholog of strain M21/2 (SEQ ID NO: 4) or no protein-. […] Body weight and survival rate are measured daily after the induction of colitis (or right after the first gavage, in case of preventive treatment). DAI (disease activity index is also measured):
On day 7 after adding DSS to their drinking water, mice are sacrificed and colons are harvested for measure of several parameters of inflammation: bowel thickness and length, myeloperoxydase (MPO) activity, cytokine expression (IL-17A, IFN-γ, IL10, IL12p70 or other cytokines) can be measured. […]

[2] = tested on: LPS-dependent NFκB activation; assay: LPS-dependent NFκB activation in HEK293T cells stably expressing TLR4, MD2 and CD14, NFκB luciferase reporter; type: cell-based; conditions: FIG. 2

K G N T F L Q S T I N R T I G V L (KGNTFLQSTINRTIGVL; listed as Faecalibacterium prausnitzii) [SEQ ID NO: 47, peptide fragment of ZP05614546.1, region between positions 53 and 68]
anti-inflammatory effect (IL-8 production as a marker of inflammation) [1]: anti-inflammatory effect in a dose dependent manner

VKGNPIEKNNFGDYAMNALGIAAAVYNLGVAPTKNTVKETEVKFTV (VKGNPIEKNNFGDYAMNALGIAAAVYNLGVAPTKNTVKETEVKFTV; listed as Faecalibacterium prausnitzii) [SEQ ID NO: 48, peptide fragment of ZP05614546.1, region between positions 90 and 135]
anti-inflammatory effect (IL-8 production as a marker of inflammation) [1]: anti-inflammatory effect in a dose dependent manner

B1: KLE1255: ortholog of ZP05614546.1 from strain KLE1255 (protein, listed as Faecalibacterium prausnitzii)
chain: MMMPANFSAVAENEMTYVVGGSLVDVLAPAMTTANWQNVSANVIKIVGNSFLAKYTNDVLAQLFDGNYVPGDVIGYSVKNLDKAYNKGYGTFGGNWGFAVGALNAGMQILGGLSAIYTLGSSSIGLETKSGTLPTL
NFκB signaling pathway inhibition (%) (NFκB signaling pathway): 72 ± 1%

B2: M21/2: ortholog of ZP05614546.1 from strain M21/2 (protein, listed as Faecalibacterium prausnitzii)
chain: MMMPANFSAVSENEMTYVMGGSVADYLAPAMGAAQWQNFHKNLITIVGNKYVQGFLDNTVGAMFSGTWTPGDGLTGFGGQFSTIWKKNYTDNVTDESTGAQKFGYGALGVVNSILNVAGNLAAIYNLGFGTAKNIVGEGVYKA
reduction of colonic inflammation (colonic inflammation): upper than the one observed with ZP 05614546.1 protein
efficiency in inhibiting NFκB signaling pathway relative to protein ZP05614546.1 (NFκB signaling pathway; 50, 25 and 12.5 ng pCMV plasmid, Carma-1-dependant NF-kB activation, HEK293T, FIG. 9): 2 fold
NFκB signaling pathway inhibition (%) (NFκB signaling pathway): 90 ± 3%

B3: SL3/3: ortholog of ZP05614546.1 from strain SL3/3 (protein, listed as Faecalibacterium prausnitzii)
chain: B2 chain with M63V, T83K, K87D, D95G
NFκB signaling pathway inhibition (%) (NFκB signaling pathway): 86 ± 5%

B4: CNCM4573: ortholog of ZP05614546.1 from strain CNCM-4573 (protein, listed as Faecalibacterium prausnitzii)
chain: B2 chain with V23I, I44V, M63V, D72V
NFκB signaling pathway inhibition (%) (NFκB signaling pathway): 89 ± 2%

B5: L2-62: ortholog of ZP05614546.1 from strain L2-62 (protein, listed as Faecalibacterium prausnitzii)
chain: MMMPANFSAVNAEVVYGGAVADYLPSAWTAESVKRFNSNIITLVSNSFTSHLLKATLGTMFSGSWGSDGVTLFGDNGTFSGLYNVNRLPGGEAQTFGNKIMTTLGLASVVYTLGMKDAAVLTAKKVTNSNGQVWGDLPNNGGSGWVG
NFκB signaling pathway inhibition (%) (NFκB signaling pathway): 34 ± 5%

B6: ZP05614546.1: conserved hypothetical protein of F. prausnitzii strain A2-165 (protein, listed as Faecalibacterium prausnitzii)
chain: MMMPANYSVIAENEMTYVNGGANFIDAIGAVTAPIWTLDNVKTFNTNIVTLVGNTFLQSTINRTIGVLFSGNTTWKEVGNIGKNLFGTNVKGNPIEKNNFGDYAMNALGIAAAVYNLGVAPTKNTVKETEVKFTV
reduction of colonic inflammation (colonic inflammation): significantly reduce colonic inflammation
inhibition of LPS-dependent NFκB activation [2]: inhibits the LPS-dependent NFκB activation
NFκB signaling pathway inhibition (%) (NFκB signaling pathway): 58 ± 6%
inhibition of Carma-1-dependent NFκB activation (NFκB signaling pathway; HEK293T cells, NFκB luciferase reporter, FIG. 1): inhibits Carma-1-dependent NFκB activation
inhibition of NFκB signaling pathway (NFκB signaling pathway; NFκB reporter system in human epithelial cells HEK 293T, protein cDNA transfected in pCMV vector): inhibits the NFκB signaling pathway in a dose-dependent manner
